In US20210100901A1 (MAINE MEDICAL CENTER RESEARCH INSTITUTE, published 2021):

B1: Synthetic collagen RGD containing peptide P-2 (CQGPRGDKGEC) (peptide)
peptide: CQGPRGDKGEC
B2: Synthetic collagen RGD containing peptide P-1 (CKGDRGDAPGC) (peptide)
peptide: CKGDRGDAPGC
notes: 2

Experiments:
integrin αvβ3 [1] = target: T1, integrin αvβ3 (human, UniProt P06756 31-1048; P05106 27-788); assay: cell-based or functional assay
integrin αvβ3 [2] = target: T1, integrin αvβ3; assay: HUVEC adhesion to immobilized peptide with function blocking antibodies
Procedure: RGD peptides (P-1, P-2, P-3, P-4, P-5, and P-C) were immobilized (100 μg/ml) to wells. HUVEC, HMVEC, HRMVEC, and HDF cells were suspended in adhesion buffer (RPMI containing 1 mM MgCl2, 0.2 mM MnCl2 and 0.5% BSA) and 1×10^5 cells were seeded into the wells in the presence or absence of P4C10, LM609, P1F6 or control antibodies (100 μg/ml). Cells were allowed to attach for 25 min at 37° C. Media containing non-attached cells was aspirated and attached cells were washed with PBS and stained with crystal violet. Cell adhesion was quantified by measuring the optical density of eluted dye. Adhesion assays were completed at least three times with triplicate wells.
It is well established that multiple integrins recognize RGD amino acid motifs within ECM proteins. However, the ability of an integrin to bind distinct RGD epitopes depends in part on its orientation within the parent molecule and the C-terminal amino acid sequences flanking the RGD motif (25-27). Potential cell surface receptors that mediate interactions with the RGDKGE (SEQ ID NO. 1) containing collagen P-2 peptide were identified. The ability of endothelial cells to bind the RGD collagen peptides P-1 and P-2 in the presence or absence of function blocking anti-integrin antibodies was examined.

T1 sequence (P06756 31-1048, chain 1 of 2): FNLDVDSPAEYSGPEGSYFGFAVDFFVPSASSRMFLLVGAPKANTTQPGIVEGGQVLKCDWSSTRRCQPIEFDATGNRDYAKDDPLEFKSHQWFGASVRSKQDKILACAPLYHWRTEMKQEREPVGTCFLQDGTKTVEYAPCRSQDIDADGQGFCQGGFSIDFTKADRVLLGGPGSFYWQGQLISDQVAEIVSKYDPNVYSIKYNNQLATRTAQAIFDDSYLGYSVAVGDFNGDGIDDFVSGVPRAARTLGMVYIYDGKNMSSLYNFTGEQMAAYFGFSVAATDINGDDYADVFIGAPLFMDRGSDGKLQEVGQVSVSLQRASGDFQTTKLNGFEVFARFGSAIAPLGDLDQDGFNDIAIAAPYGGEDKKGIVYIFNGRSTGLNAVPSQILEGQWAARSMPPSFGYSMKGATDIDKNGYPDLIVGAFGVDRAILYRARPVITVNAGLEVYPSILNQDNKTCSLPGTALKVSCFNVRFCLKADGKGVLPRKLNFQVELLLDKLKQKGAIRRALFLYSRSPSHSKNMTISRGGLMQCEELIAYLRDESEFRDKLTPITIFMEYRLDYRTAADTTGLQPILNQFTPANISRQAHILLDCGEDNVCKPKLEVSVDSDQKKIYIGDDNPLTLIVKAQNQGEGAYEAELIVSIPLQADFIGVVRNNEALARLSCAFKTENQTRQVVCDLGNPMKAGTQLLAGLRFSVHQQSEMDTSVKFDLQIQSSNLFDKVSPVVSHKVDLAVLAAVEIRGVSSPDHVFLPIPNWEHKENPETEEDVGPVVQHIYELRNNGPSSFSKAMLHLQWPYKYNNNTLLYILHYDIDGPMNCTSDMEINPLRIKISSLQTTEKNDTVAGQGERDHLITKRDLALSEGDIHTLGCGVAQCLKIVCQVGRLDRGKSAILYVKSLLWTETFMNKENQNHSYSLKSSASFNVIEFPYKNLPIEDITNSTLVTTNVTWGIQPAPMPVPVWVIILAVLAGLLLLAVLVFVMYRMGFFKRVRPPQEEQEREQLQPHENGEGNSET
T1 sequence (P05106 27-788, chain 2 of 2): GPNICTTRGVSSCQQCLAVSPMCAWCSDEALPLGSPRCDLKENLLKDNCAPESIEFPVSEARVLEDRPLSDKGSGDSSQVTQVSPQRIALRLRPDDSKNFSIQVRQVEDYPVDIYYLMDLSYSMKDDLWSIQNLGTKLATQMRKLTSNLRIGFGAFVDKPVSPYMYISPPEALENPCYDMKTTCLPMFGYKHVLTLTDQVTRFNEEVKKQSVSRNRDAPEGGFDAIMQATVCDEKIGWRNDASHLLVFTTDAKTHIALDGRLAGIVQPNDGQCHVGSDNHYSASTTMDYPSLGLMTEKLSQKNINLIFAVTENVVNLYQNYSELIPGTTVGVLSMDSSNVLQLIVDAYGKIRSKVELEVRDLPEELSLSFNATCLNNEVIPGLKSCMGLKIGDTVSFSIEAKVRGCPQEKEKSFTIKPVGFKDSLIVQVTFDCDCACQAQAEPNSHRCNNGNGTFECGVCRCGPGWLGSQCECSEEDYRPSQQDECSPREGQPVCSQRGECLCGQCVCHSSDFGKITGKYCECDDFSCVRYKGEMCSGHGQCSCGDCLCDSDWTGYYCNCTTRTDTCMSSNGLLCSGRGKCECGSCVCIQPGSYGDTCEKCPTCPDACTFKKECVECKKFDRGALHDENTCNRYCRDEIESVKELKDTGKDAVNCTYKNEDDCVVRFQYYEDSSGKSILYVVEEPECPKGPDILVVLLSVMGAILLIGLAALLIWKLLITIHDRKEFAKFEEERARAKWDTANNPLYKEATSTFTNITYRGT

| Binder | Src phosphorylation (Western blot of HUVEC attached to the peptide, serum free) (integrin αvβ3 [1]) [fold] | β3-integrin phosphorylation (Western blot of HUVEC attached to the peptide, no growth factors) (integrin αvβ3 [1]) [fold] | binding result (integrin αvβ3 [2]) |
| --- | --- | --- | --- |
| B1 | ~2 | > 3 | – |
| B2 | – | – | binds |
